Measured values: PMC6286341, “The reduced activity of PP-1α under redox stress condition is a consequence of GSH-mediated transient disulfide formation” (Scientific Reports, 2018)

Target: the molecule itself
Assay: disulfide-linked peptides by LC-MS/MS (cross-over-read search); non-treated bovine SOD1, filter-aided sample preparation, trypsin/chymotrypsin digest

B1: bovine superoxide dismutase 1 (SOD1) (enzyme)
chain: not shown
modifications: N-terminal acetylation (N-terminally acetylated Cys7 peptides)
notes: superoxide dismutase 1, bovine; 3 Cys residues Cys7, Cys56 and Cys145; also called bovine SOD1; source: bought: Sigma Aldrich S7571
binding result: binds
